{"source": "patent US20190002529A1", "about": "(GOVERNMENT OF THE UNITED STATES OF AMERICA AS REPRESENTED …, published 2019)", "binders": {"B1": {"name": "Eptatretus stoutii FIL-Gamma including a polyhistidine tag (other)", "chain": "MASHSSVSYRSVRTGGTSAMIGSSGYGGSSSSRAMGLGMGAAGLSMGGGSFRVGSAGIGGMGISSGIGGMGISSRAGGMSAYGGAASGGAGGFVSGGVPMLGYGGGAGGFIGGVSPGIMASPAFTAGRAITSAGMSGVVGTLGPAGGMVPSLVSRDEVKNILGTLNQRLASYVDKVRQLTIENETMEEELKNLTGGVPMSPDSTVNLENVETQVTEMLTEVSNLTLERVRLEIDVDHLRATADEIKSKYEFELGVRMQLETDIANMKRDLEAANDMRVDLDSKFNFLTEELTFQRKTQMEELNTLKQQFGRLGPVQTSVIELDNVKSVNLTDALNVMREEYQQVVTKNVQEAETYCKMQIDQIQGISTQTTEQISILDKEINTLEKELQPLNVEYQRLLTTYQTLGDRLTDLQNRESIDLVQFQNTYTRYEQEIEGNQVDLQRQLVTYQQLLDVKTALDAEIATYKKLLEGQELMVRTAMADDFAHATVVRSGTLGGASSSSVGYGASSTTLGAISGGYSTGGGASYSAGAGGASYSAGAGGASYGVGGGYSGGSSAMMEGSSSGGHSMYSSSSMKRSSSKSASASAGGYGTSGHDSTIILQQHHHHHH", "notes": "also called gamma protein; hagfish intermediate filament gamma protein"}}, "molecular_target": "T1, Eptatretus stoutii FIL-Alpha including a polyhistidine tag (Eptatretus stoutii, UniProt Q90501 1-643)", "T1 construct": "Recombinant protein expressed in E. coli; also called alpha protein; hagfish intermediate filament alpha protein", "T1 sequence": "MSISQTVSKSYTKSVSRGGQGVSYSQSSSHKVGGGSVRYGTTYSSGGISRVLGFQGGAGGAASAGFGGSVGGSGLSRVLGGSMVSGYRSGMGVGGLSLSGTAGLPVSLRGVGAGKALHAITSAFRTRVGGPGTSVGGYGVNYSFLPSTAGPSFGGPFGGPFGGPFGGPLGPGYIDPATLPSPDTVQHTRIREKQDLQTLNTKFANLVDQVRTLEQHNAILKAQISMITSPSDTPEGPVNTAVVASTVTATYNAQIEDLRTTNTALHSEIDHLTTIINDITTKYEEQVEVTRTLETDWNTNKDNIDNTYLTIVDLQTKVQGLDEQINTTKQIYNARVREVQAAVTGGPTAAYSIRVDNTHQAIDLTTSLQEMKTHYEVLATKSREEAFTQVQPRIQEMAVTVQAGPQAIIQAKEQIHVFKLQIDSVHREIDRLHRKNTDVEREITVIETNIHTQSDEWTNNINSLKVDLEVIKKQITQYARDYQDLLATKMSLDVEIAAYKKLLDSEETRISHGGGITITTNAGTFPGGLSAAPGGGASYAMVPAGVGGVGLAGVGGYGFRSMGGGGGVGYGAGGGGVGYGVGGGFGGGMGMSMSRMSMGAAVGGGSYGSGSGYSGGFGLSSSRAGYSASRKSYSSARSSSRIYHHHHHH", "test": "filament/thread self-assembly of refolded recombinant His-tagged proteins; filaments observed by microscopy"}
{"binder": "B1", "values": [{"measurement": "binding result", "result": "binds"}]}
